For assay [1], the target named is T1, Mouse Epiregulin (mouse, UniProt Q61521 56-101). The assay can be described thus: SPR (Biacore), antibody captured on the chip, ligand in solution, 25 C. As to the method:
(§1) Biacore T2000 instrument (BIAcore® AB, Upsala, Sweden), reagents and Biacore T2000 Evaluation Software Ver 4.1 are used for the Surface Plasmon Resonance analysis. A CM5 chip is prepared using manufacturer's EDC/NHS amine coupling method. The surfaces of all four flow cells are activated by injecting a 1:1 mixture of EDC/NHS for 7 minutes at 10 μL/min. Goat anti-human Fc γ specific antibody is diluted to 50 μg/ml in 10 mM acetate, pH 4.0 buffer and immobilized for approximately 10000 RU onto all four flow cells by 7 minute injection at a flow rate of 10 μL/min. Un-reacted sites are blocked with a 7 minute injection of ethanolamine at 10 μL/min. Injections of 3×20 seconds of glycine pH 1.5 at 30 μL/min are used to remove non-covalently associated protein. The running buffer is HBS-EP [10 mM HEPES, 150 mM Sodium Chloride, 3 mM EDTA, 0.005% Polysorbate 20].
(§2) Duplicate injections of each ligand concentration are injected at 30 μL/min for 300 seconds followed by a dissociation phase. […] Regeneration is performed by injecting 10 mM glycine pH 1.5 for 30 seconds at 30 μL/min over all flowcell.
(§3) Reference-subtracted data are collected as Fc2−Fc1. The measurements are obtained at 25° C. The on-rate (kₒₙ) and off-rate (koff) for each ligand are evaluated using a “1:1 (Langmuir) Binding” binding model. The affinity (KD) is calculated from the binding kinetics according to the relationship: KD=koff/kₒₙ.
(SPR reads the build-up and loss of mass on a sensor chip optically.)

The target of the next assay is Mouse TGF-alpha (mouse, UniProt P48030 39-88, limits assumed). The assay is described as above. As to the method: as §1, §2, §3
Assay [2] has as its target T1, Mouse Epiregulin. The assay can be described thus: cell-based or functional assay.
Assay [3] deals with T2, Rat TGF-alpha (rat, UniProt P01134 39-88). The experiment in a line: cell-based or functional assay.
The next assay has as its target Human TGF-alpha (human, UniProt P01135 40-89). The experiment in a line: cell-based or functional assay.
The target of assay [4] is T3, Met-human Epiregulin (human, UniProt O14944 63-108). The experiment in a line: cell-based or functional assay.
The target of another assay is Human Epigen (human, UniProt Q6UW88 24-104, limits assumed). The assay can be described thus: cell-based or functional assay.
Assay [5] addresses T1, Mouse Epiregulin. The experiment in a line: SPR (Biacore), antibody captured by anti-human Fc, ligand in solution, 25 C. As to the method: as §1
(§4) Duplicate injections of each ligand concentration are injected at 30 μL/min for 300 seconds followed by a dissociation phase. […] Regeneration is performed by injecting 10 mM glycine pH 1.5 for 3×20 seconds at 30 μL/min over all flowcell.
as §3

For the next assay, the target named is Cynomolgus Epiregulin (cynomolgus, UniProt O14944 63-108 (human entry), limits assumed). Described as above. As to the method:
as §1, §4, §3

Assay [6] concerns the target T2, Rat TGF-alpha. Described as above. The method, then:
as §1, §4, §3

The target of assay [7] is T3, Met-human Epiregulin. The assay is described as above. The method, then: as §1, §4, §3

Broadly, the Kd is the concentration at which binding is half-saturated. Lower therefore signals tighter binding. By koff is commonly meant the rate constant with which the complex falls apart. Broadly, the kon is a measure of how fast the partners come together. A lower kon goes with slow association.

B1: Antibody III (antibody, mouse IgG1, kappa, V domains shown)
VH: QVQLQQSGPELVKPGASVKISCKASGYTFTDAYINWVKQRPGQGLEWIGWIWPGPVITYYNPKFKGKATLTVDKSSSTAYMLLSSLTSEDSAFYFCARREVLSPFAYWGQGTLVTVSA
VL: DVLMTQTPLSLPVSLGDQASISCRSSQSIVHSTGNTYLEWYLQKPGQSPKLLIYKVSNRFSGVPDRFSGSGSGTDFTLKISRVEAEDLGVYYCFHGTHVPYTFGGGTKLEIKR
notes: same six CDRs as Antibody I
Consider B1, for which the Kd was 215 nM with Mouse Epiregulin [1] and 0.038 nM in the assay with Mouse TGF-alpha. Further, the koff with Mouse Epiregulin [1] came out at 0.0141 s⁻¹; in the assay with Mouse TGF-alpha, 2.02e-05 s⁻¹. Moreover, the kon with Mouse Epiregulin [1] was 65500 M⁻¹ s⁻¹; with Mouse TGF-alpha it was 541000 M⁻¹ s⁻¹. Besides, the “IC50 (nM), MFc7 proliferation assay (BrDU), ligand at 0.5 nM” value with Mouse Epiregulin [2] came to 214 nM; in the assay with Rat TGF-alpha [3], 0.13 nM. Besides, the figures for the “IC50 (nM), MFc7 proliferation assay (BrDU)” value in the assay with Human TGF-alpha and with Met-human Epiregulin [4] were 0.52 nM and 1.12 nM, respectively.

B2: Antibody I (antibody, human IgG4 S228P, kappa, F234A L235A, V domains shown)
VH: QVQLVQSGAEVKKPGSSVKVSCKASGYTFTDAYINWVRQAPGQGLEWMGWIWPGPVITYYNPKFKGRVTITADKSTSTAYMELSSLRSEDTAVYYCARREVLSPFAYWGQGTTVTVSS
VL: DIVMTQSPDSLAVSLGERATINCRSSQSIVHSTGNTYLEWYQQKPGQPPKLLIYKVSNRFSGVPDRFSGSGSGTDFTLTISSLQAEDVAVYYCFHGTHVPYTFGGGTKVEIKR
Regarding B2, the “IC50 (nM), MFc7 proliferation assay (BrDU), ligand at 0.5 nM” value is 334 nM with Mouse Epiregulin [2], 0.19 nM with Rat TGF-alpha [3] and 3.15 nM with Met-human Epiregulin [4]. For the same molecule, the “IC50 (nM), MFc7 proliferation assay (BrDU), ligand at 100 nM” value with Human Epigen stood at 807 nM. For the same molecule, the Kd came out at 342 nM with Mouse Epiregulin [5], 1.05 nM with Cynomolgus Epiregulin, 0.0705 nM in the assay with Rat TGF-alpha [6] and 1.29 nM with Met-human Epiregulin [7].

For the origin of these results see US20120258109A1 (Eli Lilly, published 2012).
